Results from article PMC7864917.

Biological target: wild-type pig RyR1 (ryanodine receptor 1) (pig (purified from porcine skeletal muscle)) (UniProt P16960)
Sequence of UniProt P16960 (P16960 whole entry): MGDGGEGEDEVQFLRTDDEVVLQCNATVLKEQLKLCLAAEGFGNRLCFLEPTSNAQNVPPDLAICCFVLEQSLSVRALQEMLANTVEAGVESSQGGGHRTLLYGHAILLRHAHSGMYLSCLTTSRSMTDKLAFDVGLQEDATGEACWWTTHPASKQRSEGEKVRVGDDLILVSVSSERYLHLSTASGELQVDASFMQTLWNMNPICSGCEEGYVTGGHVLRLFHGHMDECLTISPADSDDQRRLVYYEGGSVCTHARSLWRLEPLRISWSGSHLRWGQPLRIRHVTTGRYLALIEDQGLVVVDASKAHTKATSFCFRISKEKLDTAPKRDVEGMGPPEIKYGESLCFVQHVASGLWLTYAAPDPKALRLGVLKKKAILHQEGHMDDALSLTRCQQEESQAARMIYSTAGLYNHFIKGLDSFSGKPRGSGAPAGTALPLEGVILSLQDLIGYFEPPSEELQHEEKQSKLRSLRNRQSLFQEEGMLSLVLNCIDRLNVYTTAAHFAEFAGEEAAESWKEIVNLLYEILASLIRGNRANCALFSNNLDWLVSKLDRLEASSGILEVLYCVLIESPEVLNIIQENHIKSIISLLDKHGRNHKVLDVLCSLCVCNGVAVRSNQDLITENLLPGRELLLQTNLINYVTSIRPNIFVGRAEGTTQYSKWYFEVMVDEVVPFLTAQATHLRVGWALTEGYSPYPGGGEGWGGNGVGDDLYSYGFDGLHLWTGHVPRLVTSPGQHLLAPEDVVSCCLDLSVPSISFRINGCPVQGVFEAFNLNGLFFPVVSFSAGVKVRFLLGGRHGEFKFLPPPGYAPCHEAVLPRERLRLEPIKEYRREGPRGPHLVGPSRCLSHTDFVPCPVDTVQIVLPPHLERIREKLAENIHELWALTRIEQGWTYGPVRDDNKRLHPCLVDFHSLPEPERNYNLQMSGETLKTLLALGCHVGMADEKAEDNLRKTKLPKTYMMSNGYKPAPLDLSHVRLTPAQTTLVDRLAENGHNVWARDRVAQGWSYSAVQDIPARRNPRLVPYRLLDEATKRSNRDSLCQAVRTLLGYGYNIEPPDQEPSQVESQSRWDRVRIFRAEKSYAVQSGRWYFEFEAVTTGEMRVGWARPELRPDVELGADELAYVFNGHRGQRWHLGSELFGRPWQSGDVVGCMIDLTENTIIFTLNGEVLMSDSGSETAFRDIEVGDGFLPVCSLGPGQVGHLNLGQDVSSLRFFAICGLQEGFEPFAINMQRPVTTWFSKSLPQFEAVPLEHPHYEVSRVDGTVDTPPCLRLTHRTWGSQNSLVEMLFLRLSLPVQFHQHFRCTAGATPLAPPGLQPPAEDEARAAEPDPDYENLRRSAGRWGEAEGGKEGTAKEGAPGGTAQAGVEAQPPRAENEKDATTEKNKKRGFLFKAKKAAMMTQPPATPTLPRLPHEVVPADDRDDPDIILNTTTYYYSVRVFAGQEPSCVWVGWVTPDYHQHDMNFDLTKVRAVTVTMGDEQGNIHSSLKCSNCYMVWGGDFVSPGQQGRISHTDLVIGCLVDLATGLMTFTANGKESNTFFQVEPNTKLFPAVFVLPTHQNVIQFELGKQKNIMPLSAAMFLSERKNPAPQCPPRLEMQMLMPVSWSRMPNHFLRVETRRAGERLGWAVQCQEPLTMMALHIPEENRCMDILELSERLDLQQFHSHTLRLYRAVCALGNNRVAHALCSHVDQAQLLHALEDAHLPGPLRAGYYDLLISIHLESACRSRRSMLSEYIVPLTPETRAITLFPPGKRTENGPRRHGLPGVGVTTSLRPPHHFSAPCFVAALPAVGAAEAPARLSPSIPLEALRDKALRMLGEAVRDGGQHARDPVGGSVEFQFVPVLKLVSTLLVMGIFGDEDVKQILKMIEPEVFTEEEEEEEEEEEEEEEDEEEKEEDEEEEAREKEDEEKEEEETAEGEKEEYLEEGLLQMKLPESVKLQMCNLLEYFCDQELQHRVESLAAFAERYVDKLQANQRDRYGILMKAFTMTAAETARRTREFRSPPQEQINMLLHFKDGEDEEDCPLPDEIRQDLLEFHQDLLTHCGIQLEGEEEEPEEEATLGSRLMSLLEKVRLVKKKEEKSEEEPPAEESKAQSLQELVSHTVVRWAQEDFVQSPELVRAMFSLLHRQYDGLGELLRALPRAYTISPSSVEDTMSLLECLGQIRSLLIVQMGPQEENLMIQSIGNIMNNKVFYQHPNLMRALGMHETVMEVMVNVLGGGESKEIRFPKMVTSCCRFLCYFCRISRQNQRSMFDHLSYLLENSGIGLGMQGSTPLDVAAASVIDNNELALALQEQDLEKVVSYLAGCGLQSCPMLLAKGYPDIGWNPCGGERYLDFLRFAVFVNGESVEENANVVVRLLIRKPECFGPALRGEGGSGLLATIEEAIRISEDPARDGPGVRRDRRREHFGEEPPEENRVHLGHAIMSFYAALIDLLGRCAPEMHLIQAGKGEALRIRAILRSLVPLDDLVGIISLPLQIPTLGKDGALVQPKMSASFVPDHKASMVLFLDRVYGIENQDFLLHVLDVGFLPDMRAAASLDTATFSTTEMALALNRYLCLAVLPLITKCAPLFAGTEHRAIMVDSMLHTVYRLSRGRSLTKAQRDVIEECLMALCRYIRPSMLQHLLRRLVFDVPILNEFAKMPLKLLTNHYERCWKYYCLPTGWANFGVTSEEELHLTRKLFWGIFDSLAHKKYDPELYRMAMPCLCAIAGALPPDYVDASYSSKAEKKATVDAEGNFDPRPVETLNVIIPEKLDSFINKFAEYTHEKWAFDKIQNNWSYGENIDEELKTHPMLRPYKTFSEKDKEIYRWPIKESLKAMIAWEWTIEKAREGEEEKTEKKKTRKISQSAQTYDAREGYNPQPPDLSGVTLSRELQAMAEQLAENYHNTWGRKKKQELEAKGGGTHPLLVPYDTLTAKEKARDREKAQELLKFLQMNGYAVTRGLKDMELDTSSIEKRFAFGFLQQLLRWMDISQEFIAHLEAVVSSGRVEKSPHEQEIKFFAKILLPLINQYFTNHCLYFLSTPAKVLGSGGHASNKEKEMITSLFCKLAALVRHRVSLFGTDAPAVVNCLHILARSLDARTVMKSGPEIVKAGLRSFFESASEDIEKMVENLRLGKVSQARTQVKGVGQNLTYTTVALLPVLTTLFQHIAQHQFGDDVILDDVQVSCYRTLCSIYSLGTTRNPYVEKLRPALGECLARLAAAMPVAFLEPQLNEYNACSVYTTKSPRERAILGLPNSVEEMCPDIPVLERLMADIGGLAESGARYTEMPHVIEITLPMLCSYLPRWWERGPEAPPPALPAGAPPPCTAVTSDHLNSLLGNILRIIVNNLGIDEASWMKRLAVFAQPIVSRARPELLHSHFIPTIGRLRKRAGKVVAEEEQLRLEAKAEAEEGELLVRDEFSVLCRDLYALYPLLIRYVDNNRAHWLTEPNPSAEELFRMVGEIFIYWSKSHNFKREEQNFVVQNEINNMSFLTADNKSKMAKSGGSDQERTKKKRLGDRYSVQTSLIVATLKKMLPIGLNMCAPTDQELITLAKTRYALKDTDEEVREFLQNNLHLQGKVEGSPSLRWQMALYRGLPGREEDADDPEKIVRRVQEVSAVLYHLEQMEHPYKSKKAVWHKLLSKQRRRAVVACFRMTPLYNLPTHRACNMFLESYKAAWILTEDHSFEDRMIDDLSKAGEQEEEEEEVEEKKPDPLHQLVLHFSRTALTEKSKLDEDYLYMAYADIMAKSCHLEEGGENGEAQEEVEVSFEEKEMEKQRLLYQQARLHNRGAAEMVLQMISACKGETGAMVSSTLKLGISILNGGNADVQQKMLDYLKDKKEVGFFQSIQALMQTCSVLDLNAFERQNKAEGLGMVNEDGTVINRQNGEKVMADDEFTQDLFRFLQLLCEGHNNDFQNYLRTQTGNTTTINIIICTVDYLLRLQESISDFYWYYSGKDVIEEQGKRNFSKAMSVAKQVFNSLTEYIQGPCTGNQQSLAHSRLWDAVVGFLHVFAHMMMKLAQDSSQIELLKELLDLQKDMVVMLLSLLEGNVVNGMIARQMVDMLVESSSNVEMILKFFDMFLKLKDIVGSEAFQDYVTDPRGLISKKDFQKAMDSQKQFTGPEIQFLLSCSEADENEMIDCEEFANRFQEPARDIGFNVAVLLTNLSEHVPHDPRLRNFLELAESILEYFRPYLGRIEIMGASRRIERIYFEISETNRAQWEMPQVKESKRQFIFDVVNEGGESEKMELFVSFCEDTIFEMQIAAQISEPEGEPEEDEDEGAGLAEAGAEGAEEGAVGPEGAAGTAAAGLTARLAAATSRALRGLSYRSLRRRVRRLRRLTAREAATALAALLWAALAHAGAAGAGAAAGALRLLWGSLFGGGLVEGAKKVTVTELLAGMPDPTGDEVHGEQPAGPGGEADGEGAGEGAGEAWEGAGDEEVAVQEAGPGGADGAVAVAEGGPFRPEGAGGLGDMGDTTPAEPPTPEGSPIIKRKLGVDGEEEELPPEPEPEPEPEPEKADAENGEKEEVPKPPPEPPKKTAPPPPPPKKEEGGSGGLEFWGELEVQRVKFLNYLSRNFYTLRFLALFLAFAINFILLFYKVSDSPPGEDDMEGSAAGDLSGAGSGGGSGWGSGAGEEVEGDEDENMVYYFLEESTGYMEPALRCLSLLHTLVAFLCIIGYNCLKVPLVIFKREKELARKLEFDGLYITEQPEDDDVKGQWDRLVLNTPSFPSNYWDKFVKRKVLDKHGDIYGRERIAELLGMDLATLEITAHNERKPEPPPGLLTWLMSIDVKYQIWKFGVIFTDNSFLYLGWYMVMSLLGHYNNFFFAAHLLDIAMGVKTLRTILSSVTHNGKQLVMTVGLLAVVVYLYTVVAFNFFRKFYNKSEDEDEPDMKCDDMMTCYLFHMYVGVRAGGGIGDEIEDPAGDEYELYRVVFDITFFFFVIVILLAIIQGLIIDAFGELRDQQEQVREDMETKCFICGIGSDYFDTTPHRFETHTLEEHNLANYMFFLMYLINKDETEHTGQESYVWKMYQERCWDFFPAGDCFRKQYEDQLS

single-channel open probability (Po) in planar lipid bilayers with 1 uM calmodulin, 40 nM free Ca2+, 2 mM ATP: 2 fold
Substance: apo-calmodulin (from UniProt P0DP23 1-149) (natural protein)
